Source: paper PMC6668832, “Structural basis for recognition of the tumor suppressor protein PTPN14 by the oncoprotein E7 of human papillomavirus” (PLoS Biology, 2019)

B1: C-terminal domain (residues 54–105) of HPV18 E7, His6-MBP tag removed (domain or fragment)
chain: AEPQRHTMLCMCCKCEARIKLVVESSADDLRAFQQLFLNTLSFVCPWCASQQ
notes: HPV18 E7, C-terminal domain, residues 54-105; Homodimer by SEC-MALS; one zinc ion per monomer; also called HPV18 E7 C-terminal domain; HPV18 E7(54–105); source: E. coli BL21(DE3) RIL, modified pET28a, purified (Ni-NTA, TEV, second Ni-NTA, HiTrap Q, Superdex 75); not shown: His6, N-terminal, cleaved; MBP, N-terminal, cleaved
B2: PTP domain (residues 886–1187) of human PTPN14 (domain or fragment, UniProt Q15678 886-1187, looked up)
chain: VDATRVPMDERFRTLKKKLEEGMVFTEYEQIPKKKANGIFSTAALPENAERSRIREVVPYEENRVELIPTKENNTGYINASHIKVVVGGAEWHYIATQGPLPHTCHDFWQMVWEQGVNVIAMVTAEEEGGRTKSHRYWPKLGSKHSSATYGKFKVTTKFRTDSVCYATTGLKVKHLLSGQERTVWHLQYTDWPDHGCPEDVQGFLSYLEEIQSVRRHTNSMLEGTKNRHPPIVVHCSAGVGRTGVLILSELMIYCLEHNEKVEVPMMLRLLREQRMFMIQTIAQYKFVYQVLIQFLQNSRLI
notes: human PTPN14, catalytic PTP domain, residues 886-1187, untagged; also called PTPN14 PTP domain; nonreceptor-type protein tyrosine phosphatase 14; source: E. coli BL21(DE3) RIL, pET21a, purified (alone or copurified with E7)
B3: C-terminal domain of E7 from HPV11 (residues 45–98) (domain or fragment)
chain: AQPLTQHYQILTCCCGCDSNVRLVVECTDGDIRQLQDLLLGTLNIVCPICAPKP
notes: HPV11 E7, C-terminal domain, residues 45-98; Purified similarly to HPV18 E7, whose tag was removed with TEV; the complex mass of 80–85 kDa fits a cleaved tag; also called HPV11 E7 C-terminal domain; source: E. coli, MBP-modified pET28a, copurified with PTPN14 by mixing cell lysates
B4: C-terminal domain of E7 from HPV1a (residues 39–93) (domain or fragment)
chain: LVSPQQPYAVVASCAYCEKLVRLTVLADHSAIRQLEELLLRSLNIVCPLCTLQRQ
notes: HPV1a E7, C-terminal domain, residues 39-93; Purified similarly to HPV18 E7, whose tag was removed with TEV; the complex mass of 80–85 kDa fits a cleaved tag; also called HPV1a E7 C-terminal domain; source: E. coli, MBP-modified pET28a, copurified with PTPN14 by mixing cell lysates
B5: C-terminal domain of E7 from HPV16 (residues 45–98) (domain or fragment)
chain: AEPDRAHYNIVTFCCKCDSTLRLCVQSTHVDIRTLEDLLMGTLGIVCPICSQKP
notes: HPV16 E7, C-terminal domain, residues 45-98; Purified similarly to HPV18 E7, whose tag was removed with TEV; the complex mass of 80–85 kDa fits a cleaved tag; also called HPV16 E7 C-terminal domain; source: E. coli, MBP-modified pET28a, copurified with PTPN14 by mixing cell lysates
B6: MBP-tagged HPV18 E7 C-terminal domain (residues 54–105) (domain or fragment)
chain: B1 chain
notes: HPV18 E7, C-terminal domain, residues 54-105; also called His6–MBP-tagged C-terminal domain of HPV18 E7; source: E. coli BL21(DE3) RIL, modified pET28a, purified; not shown: His6, N-terminal, kept; MBP, N-terminal, kept
B7: PTP domain of PTPN21 (residues 873–1174) (domain or fragment, human, UniProt Q16825 873-1174, looked up)
chain: EVATRATNDERCKILEQRLEQGMVFTEYERILKKRLVDGECSTARLPENAERNRFQDVLPYDDVRVELVPTKENNTGYINASHIKVSVSGIEWDYIATQGPLQNTCQDFWQMVWEQGIAIIAMVTAEEEGGREKSFRYWPRLGSRHNTVTYGRFKITTRFRTDSGCYATTGLKMKHLLTGQERTVWHLQYTDWPEHGCPEDLKGFLSYLEEIQSVRRHTNSTSDPQSPNPPLLVHCSAGVGRTGVVILSEIMIACLEHNEVLDIPRVLDMLRQQRMMLVQTLCQYTFVYRVLIQFLKSSRLI
notes: human PTPN21, PTP domain, residues 873-1174; also called PTPN21 PTP domain; PTPD1; source: E. coli, modified pPRoEX HTa, purified (Ni-NTA, TEV, second Ni-NTA); not shown: His10, N-terminal, cleaved; green fluorescent protein, N-terminal, cleaved

Legend:
[1] = target: the molecule itself; assay: SEC-MALS; Superdex 75 10/300 GL; 50 mM Tris-HCl pH 7.5, 200 mM NaCl, 2 mM dithiothreitol; 6 mg/mL E7 C-terminal domain, 3 mg/mL PTP domain or copurified complex
[2] = target: C-terminal domain of E7 from HPV38 (residues 45–100) (human papillomavirus 38 (HPV38)); assay: as above
C-terminal domain of E7 from HPV38 (residues 45–100) (human papillomavirus 38 (HPV38)), sequence (Q80908 45-100 limits assumed): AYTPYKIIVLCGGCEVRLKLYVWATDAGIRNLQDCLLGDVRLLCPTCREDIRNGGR

[3] = target: C-terminal domain of E7 from HPV4 (residues 44–100) (human papillomavirus 4 (HPV4)); assay: as above
C-terminal domain of E7 from HPV4 (residues 44–100) (human papillomavirus 4 (HPV4)), sequence (Q07857 44-100 limits assumed): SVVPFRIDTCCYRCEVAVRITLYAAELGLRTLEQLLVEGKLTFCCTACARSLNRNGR

[4] = target: B4; assay: as above; conditions: both partners purified
[5] = target: B3; assay: as above; conditions: both partners purified
[6] = target: B5; assay: as above; conditions: both partners purified
[7] = target: B1; assay: as above; conditions: both partners purified
[8] = target: B2; assay: SEC; copurified from mixed E. coli lysates (Ni-NTA, TEV, second Ni-NTA); final HiLoad 26/600 Superdex 75 pg gel filtration, fractions on SDS-PAGE with Coomassie staining; conditions: both partners purified
[9] = target: B2; assay: ITC; 25 °C, VP-ITC; PTP domain titrated into MBP-tagged HPV18 E7 (0.2 mM into 10 μM in Fig 1B); 20 mM Tris-HCl pH 7.5, 100 mM NaCl, 10 mM β-mercaptoethanol; one-to-one model; triplicate; conditions: both partners purified
[10] = target: B7; assay: as above; conditions: both partners purified

B1
stoichiometry N [1]: 2

B2
stoichiometry N (PTPN14 per E7 (2:2)) [2]: 1 | stoichiometry N (PTPN14 per E7 (2:2)) [3]: 1 | stoichiometry N [4]: 1 PTPN14 per E7 (2:2) | stoichiometry N [5]: 1 PTPN14 per E7 (2:2) | stoichiometry N [6]: 1 PTPN14 per E7 (2:2) | stoichiometry N [7]: 1 PTPN14 per E7 (2:2)

B3
binding result [8]: binds

B4
binding result [8]: binds

B5
binding result [8]: binds

B6
Kd [9]: 18.2 nM | Kd [10]: 5.81 nM

B7
stoichiometry N [7]: 1 PTPN21 per E7 (2:2)
